Results on one molecule are retold here after article doi:10.1101/2025.03.12.642038, “Structural, biophysical and biological analysis and characterisation of IRF4 DNA-binding domain mutations associated with multiple myeloma”.

Holding throughout (assay): FP; FP: PBS + 0.05% Tween20, 5 nM DNA, 1 h, room temperature; SPR: Biacore S200, SA chip, protein 0.1-4500 nM, running buffer not given in material; errors are SD
In one series the target is T1, IRF4 DBD D106Y (Homo sapiens, UniProt Q15306 20-132, D106Y).
T1 sequence: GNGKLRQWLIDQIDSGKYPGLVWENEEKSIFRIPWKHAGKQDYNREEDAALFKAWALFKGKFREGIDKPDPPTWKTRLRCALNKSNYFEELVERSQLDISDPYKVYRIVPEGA
As to conditions: protein: recombinant; tags: N-terminal His8-linker-His8-TEV, cleaved; label: 3' fluorescein (FAM); hairpin, TTTT loop.

For the next series, the target named is T2, IRF4 DBD T95A (Homo sapiens, UniProt Q15306 20-132, T95A).
T2 sequence: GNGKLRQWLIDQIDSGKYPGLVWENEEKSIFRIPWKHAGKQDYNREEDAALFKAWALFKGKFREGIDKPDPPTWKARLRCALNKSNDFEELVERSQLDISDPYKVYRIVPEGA
The settings on record: protein: recombinant; tags: N-terminal His8-linker-His8-TEV, cleaved; label: 3' fluorescein (FAM); hairpin, TTTT loop.

A further series addresses T3, IRF4 DBD C99S (Homo sapiens, UniProt Q15306 20-132, C99S).
T3 sequence: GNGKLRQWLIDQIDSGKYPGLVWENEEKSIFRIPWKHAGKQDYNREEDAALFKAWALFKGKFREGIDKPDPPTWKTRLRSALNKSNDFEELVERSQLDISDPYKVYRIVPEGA
As to conditions: protein: recombinant; label: 3' fluorescein (FAM); hairpin, TTTT loop.

In a further series the target is T4, IRF4 DBD C99R (Homo sapiens, UniProt Q15306 20-132, C99R).
T4 sequence: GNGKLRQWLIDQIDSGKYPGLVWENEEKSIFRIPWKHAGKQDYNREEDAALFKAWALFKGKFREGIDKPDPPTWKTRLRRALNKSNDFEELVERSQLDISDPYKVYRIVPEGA
As to conditions: protein: recombinant; tags: N-terminal His8-linker-His8-TEV, cleaved; label: 3' fluorescein (FAM); hairpin, TTTT loop.

A further series concerns the target T5, IRF4 DBD D117H (Homo sapiens, UniProt Q15306 20-132, D117H).
T5 sequence: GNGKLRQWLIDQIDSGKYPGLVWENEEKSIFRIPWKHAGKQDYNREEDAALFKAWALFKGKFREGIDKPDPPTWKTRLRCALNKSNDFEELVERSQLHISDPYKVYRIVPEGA
As to conditions: protein: recombinant; tags: N-terminal His8-linker-His8-TEV, cleaved; label: 3' fluorescein (FAM); hairpin, TTTT loop.

As for CTTGGTTTCACTTCCTGCGTTTTCGCAGGAAGTGAAACCAAG (structured_DNA) [IRE hairpin (FAM)], the Kd (usually the free concentration of one partner at which half of the binding sites on the other are occupied at equilibrium, for simple one-to-one binding) with IRF4 DBD D106Y was 219 ± 261 nM; in the series with IRF4 DBD T95A, 105 ± 59 nM; in the series with IRF4 DBD C99S, 243 ± 238 nM; with IRF4 DBD C99R, 279 ± 286 nM; with IRF4 DBD D117H it was 131 ± 28 nM.
